According to paper PMC7136618, “Defective nucleotide-dependent assembly and membrane fusion in Mfn2 CMT2A variants improved by Bax” (Life Science Alliance, 2020):
Where a chain is given by its changes, count along the chain named. In names and notes the source's numbering stands.

B1: Mfn2^S378P with a C-terminal 3×FLAG tag (natural protein, UniProt Q80U63 1-757, looked up)
chain: MSLLFSRCNSIVTVKKDKRHMAEVNASPLKHFVTAKKKINGIFEQLGAYIQESASFLEDTHRNTELDPVTTEEQVLDVKGYLSKVRGISEVLARRHMKVAFFGRTSNGKSTVINAMLWDKVLPSGIGHTTNCFLRVGGTDGHEAFLLTEGSEEKKSVKTVNQLAHALHQDEQLHAGSMVSVMWPNSKCPLLKDDLVLMDSPGIDVTTELDSWIDKFCLDADVFVLVANSESTLMQTEKQFFHKVSERLSRPNIFILNNRWDASASEPEYMEEVRRQHMERCTSFLVDELGVVDRAQAGDRIFFVSAKEVLSARVQKAQGMPEGGGALAEGFQVRMFEFQNFERQFEECISQSAVKTKFEQHTVRAKQIAEAVRLIMDPLHIAAQEQRVYCLEMREERQDRLRFIDKQLELLAQDYKLRIKQITEEVERQVSTAMAEEIRRLSVLVDEYQMDFHPSPVVLKVYKNELHRHIEEGLGRNLSDRCSTAIASSLQTMQQDMIDGLKPLLPVSMRNQIDMLVPRQCFSLSYDLNCDKLCADFQEDIEFHFSLGWTMLVNRFLGPKNSRRALLGYSDQVQRPLPLTPANPSMPPLPQSSLTQEELMVSMVTGLASLTSRTSMGILVVGGVVWKAVGWRLIALSFGLYGLLYVYERLTWTTKAKERAFKRQFVEYASEKLQLIISYTGSNCSHQVQQELSGTFAHLCQQVDITRDNLEQEIAAMNKKVEALDSLQSRAKLLRNKAGWLDSELNMFTHQYLQPSR
notes: Mitofusin 2 (Mfn2) with the CMT2A-associated substitution S378P; CMT2A-associated (patient) substitution; also called Mfn2-FLAG variant S378P; source: Mfn2-null MEFs, retroviral transduction, clonal population; isolated mitochondria, lysed; not shown: 3×FLAG, C-terminal, kept
B2: Mfn2^Q386P with a C-terminal 3×FLAG tag (natural protein, UniProt Q80U63 1-757, looked up)
chain: B1 chain with P378S, Q386P
notes: Mitofusin 2 (Mfn2) with the CMT2A-associated substitution Q386P; CMT2A-associated (patient) substitution; also called Mfn2-FLAG variant Q386P; source: Mfn2-null MEFs, retroviral transduction, clonal population; isolated mitochondria, lysed; not shown: 3×FLAG, C-terminal, kept
B3: Mfn2^C390F with a C-terminal 3×FLAG tag (natural protein, UniProt Q80U63 1-757, looked up)
chain: B1 chain with P378S, C390F
notes: Mitofusin 2 (Mfn2) with the CMT2A-associated substitution C390F; CMT2A-associated (patient) substitution; also called Mfn2-FLAG variant C390F; source: Mfn2-null MEFs, retroviral transduction, clonal population; isolated mitochondria, lysed; not shown: 3×FLAG, C-terminal, kept
B4: Mfn2^A383V with a C-terminal 3×FLAG tag (natural protein, UniProt Q80U63 1-757, looked up)
chain: B1 chain with P378S, A383V
notes: Mitofusin 2 (Mfn2) with the CMT2A-associated substitution A383V; CMT2A-associated (patient) substitution; also called Mfn2-FLAG variant A383V; source: Mfn2-null MEFs, retroviral transduction, clonal population; isolated mitochondria, lysed; not shown: 3×FLAG, C-terminal, kept

What was measured:
[1] = target: Mfn2^WT with a C-terminal 3×FLAG tag (UniProt Q80U63); assay: native gel or EMSA; BN-PAGE of untreated isolated mitochondria, lysed in 1% digitonin; 4–16% Bis-Tris native gel at 4°C; anti-FLAG blot
[2] = target: the molecule itself; assay: as above

Row | Molecule | stoichiometry N [1] | stoichiometry N [2]
1 | Mfn2^WT with a C-terminal 3×FLAG tag (from UniProt Q80U63 1-757) (natural protein) | 2 | 
2 | B1 |  | 2
3 | B2 |  | 2
4 | B3 |  | 2
5 | B4 |  | 2
